Assay [1] deals with T1, T129C Xyn-XMod-Doc protein (R. flavefaciens XMod-Doc from the CttA scaffoldin fused to the XynT6 xylanase … (Ruminococcus flavefaciens strain FD1, UniProt A0AEF5 565-803, engineered cysteine (T129C in the xylanase) coupled to a 5 kDa NHS-PEG-Mal linker on the cover glass or cantilever)).
T1 construct: X-module and dockerin (XMod-Doc) of the CttA scaffoldin of Ruminococcus flavefaciens strain FD1; The Xyn domain is a marker (fingerprint) and immobilisation domain and is written as a carrier under tags; Addgene 60865 holds the plasmid; also called XynT6-XDoc T129C; Xylanase-Xmodule-Dockerin; source: E. coli BL21, purified (Ni-NTA); not shown: XynT6 xylanase from Geobacillus stearothermophilus …
T1 sequence: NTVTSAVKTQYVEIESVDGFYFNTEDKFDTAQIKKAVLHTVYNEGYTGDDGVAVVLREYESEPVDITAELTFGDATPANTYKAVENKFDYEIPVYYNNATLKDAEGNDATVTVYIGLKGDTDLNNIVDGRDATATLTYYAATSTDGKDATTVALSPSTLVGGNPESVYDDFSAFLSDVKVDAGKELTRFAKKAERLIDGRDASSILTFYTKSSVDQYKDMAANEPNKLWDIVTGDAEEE
Description: AFM single-molecule force spectroscopy; as a1, but final Doc:Coh rupture immediately following XMod unfolding (35–40% of traces); Bell-Evans fit. To be noted: both partners purified.

For assay [2], the target named is T1, T129C Xyn-XMod-Doc protein (R. …). Nature of the assay: AFM single-molecule force spectroscopy; both partners covalently immobilised through PEG linkers; configuration I: Coh-CBM on the cantilever, Xyn-XMod-Doc on the cover glass (configuration II the reverse); Ca-TBS (25 mM TRIS, 72 mM NaCl, 1 mM CaCl2, pH 7.2); pulling speeds 0.2 to 6.4 um/s; final complex rupture with intact XMod; Bell-Evans fit. Particulars: both partners purified.

From publication PMC4266597, “Ultrastable cellulosome-adhesion complex tightens under load” (Nature Communications, 2014) come the findings set out here.

What is called koff is the rate constant with which the complex falls apart.

B1: Coh-CBM C2A, C63S fusion protein (R. flavefaciens CohE from ScaE fused to cellulose-binding module 3a (CBM3a) from C. thermocellum), with ybbR tag (domain or fragment, Ruminococcus flavefaciens strain FD1)
chain: ALTDRGMTYDLDPKDGSSAATKPVLEVTKKVFDTAADAAGQTVTVEFKVSGAEGKYATTGYHIYWDERLEVVATKTGAYAKKGAALEDSSLAKAENNGNGVFVASGADDDFGADGVMWTVELKVPADAKAGDVYPIDVAYQWDPSKGDLFTDNKDSAQGKLMQAYFFTQGIKSSSNPSTDEYLVKANATYADGYIAIKAGEP
modifications: ybbR tag covalently linked to Coenzyme A on PEG by Sfp phosphopantetheinyl transferase
notes: cohesin CohE of the ScaE scaffoldin of Ruminococcus flavefaciens strain FD1; The CBM is a marker (fingerprint) and immobilisation domain and is written as a carrier under tags; C2A reverts the earlier A2C in the CBM; also called CohE-CBM C2A C63S; Coh-CBM-ybbR; source: E. coli BL21(DE3) RIPL, purified (Ni-NTA); not shown: CBM3a from C. thermocellum with C2A and C63S, C-terminal, kept
B1: in assay [1], the “koff of the rupture following XMod unfolding” value was found to be 0.00047 s⁻¹ and the “rupture force following XMod unfolding” value is approximately 300 pN. In assay [2], this molecule came in with a koff of 7.3e-07 s⁻¹.
